# B1: His6UL36^USP: His-tagged recombinant 533 N-terminal amino acids of HSV-1 UL36, ubiquitin-specific cysteine protease (protein)
# chain: MGGGNNTNPGGPVHKQAGSLASRAHMIAGTPPHSTMERGGDRDIVVTGARNQFAPDLEPGGSVSCMRSSLSFLSLIFDVGPRDVLSAEAIEGCLVEGGEWTRATAGPGPPRMCSIVELPNFLEYPGARGGLRCVFSRVYGEVGFFGEPAAGLLETQCPAHTFFAGPWALRPLSYTLLTIGPLGMGLFRDGDTAYLFDPHGLPEGTPAFIAKVRAGDMYPYLTYYTRDRPDVRWAGAMVFFVPSGPEPAAPADLTAAALHLYGASETYLQDEAFSERRVAITHPLRGEIAGLGEPCVGVGPREGVGGPGPHPPTAAQSPPPTRARRDDRASETSRGTAGPSAKPEAKRPNRAPDDVWAVALKGTPPTDPPSADPPSADPPSAIPPPPPSAPKTPAAEAAEEDDDDMRVLEMGVVPVGRHRARYSAGLPKRRRPTWTPPSSVEDLTSGEKTKRSAPPAKTKKKSTPKGKTPVGAAVPASVPEPVLASAPPDPAGPPVAEAGEDDGPTVPASSQALEALKTRRSPEPPGADLAQLF
# modifications: left off: small tags and cut ends
# notes: His-tagged recombinant 533 N-terminal amino acids of HSV-1 UL36, ubiquitin-specific cysteine protease
# Target: T1, His6UL36^USP (Human herpesvirus 1, UniProt P10220)
# T1 construct: amino acids 1 to 533 of the UL36 gene product from HHV HSV1; 6-His (pET-28a(+)) (N); 6-His (pET-28a(+)) (C); made in house; host or cells: E. coli BL21 or BL21 RIPL
# Experiment: Cleavage of Ub-AMC by recombinant UL36^USP
# Type: biochemical, HSV-1
# Conditions: ~0.1 pmol enzyme, Ub-AMC, 25° C.
# Protocol: Recombinant UL36^USP and UL36^USP/C65A (˜0.1 pmol) were incubated in 125 μl kinetics buffer (50 mM HEPES, pH 7.5, 0.5 mM EDTA) supplemented with 1 mM DTT at room temperature for 10 minutes. To this was added 75 μl of Ub-AMC (250 nM in kinetics buffer) and AMC liberation was measured at 25° C. For inhibition experiments, one of UbVME, SUMO-VME, ISG15-VS, or Nedd8-VS (10 pmol) was incubated with recombinant UL36^USP (˜0.1 pmol) for 30 minutes at room temperature. To this was added 75 μl of Ub-AMC (250 nM in kinetics buffer) and AMC liberation was measured. Cleavage experiments were performed in triplicate. All fluorescence measurements were made using a Wallac Victor^3 1420 fluorescence/luminescence plate reader (Perkin Elmer) using 380 nm excitation and 460 nm emission wavelengths, with 5 second intervals between measurements. Data were exported as an Excel file and plotted as mean values of replicate experiments using Kaleidagraph v3.6 (Synergy Software).
# In a typical eukaryotic cell, the presence of multiple DUBs, whose substrate pool and catalytic activities may overlap, confounds straightforward analysis of the activity of any one particular DUB. […] The proteins were expressed, purified over Ni-NTA resin and evaluated for their ability to cleave Ub C-terminal 7-amido-4-methylcoumarin (Ub-AMC) (Dang et al., 1998). […]
molecule,measurement,value
B1,Turnover number for Ub-AMC cleavage,~6 min⁻¹
